# B1: SC17.34 (antibody, V domains shown)
# VH: EVQLQQSGPELVKPGSSVKISCKASGYTFTDYNMDWVKQSHGKRLEWIGYIYPDNGGAGYNQKFKGKATLTVDKSSSTAYMELRSLTSEDSAVYYCSRSITTAWFAYWGQGTLVTVSA
# VL: DIKMTQSPSSMYASLGERVTITCKASQDINSYLSWFQQKPGKSPKTLIYRANRLVDGVPSRFSGSGSGQDYSLTISSLEYEDMGIYYCLQYDEFPPTFGGGTKLEIK
# notes: murine mAb
# B2: SC17.17 (antibody, V domains shown)
# VH: EVQLQQSGPEVMKPGASVKMSCKASGYTFTDYNMHWVKQNQGKSLEWIGEINPNIGGTGYNQKFKGKATLTVHKSSSTAYMELRSLTSEDSAVYYCARTYSYYSYEFAYWGQGTLVTVSA
# VL: QIVLTQSPAIMSASPGEKVTMTCSASSSVSYMHWYQQKSGTSPKRWIYDTSKLPSGVPARFSGSGSGTSYSLTISSMEAEDAATYYCQQWSSTPPTFGAGTKLELK
# notes: murine mAb
# Legend:
# [1] = biological target: T1, human SEZ6L2 ECD-His (human, UniProt Q6UXD5 28-843); assay: ELISA on plates coated with SEZ6L2 protein
# T1 construct: whole entry named
# T1 sequence (Q6UXD5 other isoform, or with tags, fused parts or gaps): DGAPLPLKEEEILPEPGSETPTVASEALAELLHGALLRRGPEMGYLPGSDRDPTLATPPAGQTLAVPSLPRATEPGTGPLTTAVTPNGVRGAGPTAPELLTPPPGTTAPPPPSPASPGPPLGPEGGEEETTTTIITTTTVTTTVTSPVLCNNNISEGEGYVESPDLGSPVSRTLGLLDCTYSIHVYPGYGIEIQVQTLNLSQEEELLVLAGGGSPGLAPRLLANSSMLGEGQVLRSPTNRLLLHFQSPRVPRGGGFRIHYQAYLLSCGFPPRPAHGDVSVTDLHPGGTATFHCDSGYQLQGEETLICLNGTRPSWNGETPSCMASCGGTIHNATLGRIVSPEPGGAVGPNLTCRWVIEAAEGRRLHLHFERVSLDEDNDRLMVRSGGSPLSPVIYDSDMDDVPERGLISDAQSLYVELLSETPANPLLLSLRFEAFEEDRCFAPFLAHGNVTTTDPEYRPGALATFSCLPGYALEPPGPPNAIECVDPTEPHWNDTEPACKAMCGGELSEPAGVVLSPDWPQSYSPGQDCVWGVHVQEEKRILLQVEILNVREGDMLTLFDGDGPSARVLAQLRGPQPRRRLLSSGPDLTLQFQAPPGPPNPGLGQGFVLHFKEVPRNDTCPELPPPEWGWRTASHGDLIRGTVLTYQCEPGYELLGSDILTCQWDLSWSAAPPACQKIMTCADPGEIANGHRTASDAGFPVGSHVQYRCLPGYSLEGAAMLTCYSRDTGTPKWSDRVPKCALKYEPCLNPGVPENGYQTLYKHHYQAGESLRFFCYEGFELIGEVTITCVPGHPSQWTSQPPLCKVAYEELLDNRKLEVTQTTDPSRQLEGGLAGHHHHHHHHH
# [2] = biological target: T2, mouse SEZ6 on Neuro2a cells (mouse, UniProt Q7TSK2 20-991); assay: flow cytometry on Neuro2a cells expressing mouse SEZ6
# T2 construct: endogenous on Neuro2a cells; also called murine SEZ6; mSEZ6
# T2 sequence (Q7TSK2 20-991): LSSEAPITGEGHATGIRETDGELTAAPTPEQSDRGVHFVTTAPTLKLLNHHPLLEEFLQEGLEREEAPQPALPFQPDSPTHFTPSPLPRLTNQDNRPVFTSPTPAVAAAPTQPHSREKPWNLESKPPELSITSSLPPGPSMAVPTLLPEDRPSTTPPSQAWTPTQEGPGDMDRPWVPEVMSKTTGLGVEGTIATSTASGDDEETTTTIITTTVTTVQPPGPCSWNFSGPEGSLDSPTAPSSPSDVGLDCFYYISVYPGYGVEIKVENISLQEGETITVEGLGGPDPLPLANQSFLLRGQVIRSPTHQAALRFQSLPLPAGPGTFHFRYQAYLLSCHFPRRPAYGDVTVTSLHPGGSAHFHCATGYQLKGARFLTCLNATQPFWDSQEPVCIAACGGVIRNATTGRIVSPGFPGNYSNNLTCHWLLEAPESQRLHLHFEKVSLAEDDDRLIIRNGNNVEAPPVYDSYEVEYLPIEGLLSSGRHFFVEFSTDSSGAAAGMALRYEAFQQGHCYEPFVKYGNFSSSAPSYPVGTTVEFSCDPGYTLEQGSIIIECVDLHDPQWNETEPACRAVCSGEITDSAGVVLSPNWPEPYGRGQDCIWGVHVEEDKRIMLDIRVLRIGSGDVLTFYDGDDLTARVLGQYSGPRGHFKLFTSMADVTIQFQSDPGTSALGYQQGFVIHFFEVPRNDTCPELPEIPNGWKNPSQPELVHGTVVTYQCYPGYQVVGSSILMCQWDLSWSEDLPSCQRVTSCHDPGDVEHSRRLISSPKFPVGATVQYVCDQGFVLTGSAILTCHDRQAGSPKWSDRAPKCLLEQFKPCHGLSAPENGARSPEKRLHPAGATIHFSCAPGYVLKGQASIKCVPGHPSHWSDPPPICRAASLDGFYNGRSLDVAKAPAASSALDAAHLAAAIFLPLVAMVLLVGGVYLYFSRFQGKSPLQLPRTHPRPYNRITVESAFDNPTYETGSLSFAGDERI
# Method: (§1) Briefly 1×10⁵ cells per well of Neuro2a, RIN-5mF, or yeast displaying cynomolgus SEZ6 cells were incubated for 30 minutes with 50 μL PBS (2% FCS) buffer with 5 μg/mL antibody. […] After incubating for 15 minutes cells were washed twice with the PBS buffer and re-suspended in the same with DAPI for flow cytometry analysis of Neuro2a and Rin-m5F or buffer without DAPI for flow cytometric analysis of yeast cells with cSEZ6.
# [3] = biological target: T3, extracellular domain of cynomolgus SEZ6 on yeast (cynomolgus, UniProt Q53EL9 23-925 (human entry)); assay: flow cytometry, yeast displaying cynomolgus SEZ6 ECD, 5 ug/mL antibody
# T3 construct: yeast display; the whole entry is named; also called cSEZ6; cynomolgus SEZ6 ECD
# T3 chain: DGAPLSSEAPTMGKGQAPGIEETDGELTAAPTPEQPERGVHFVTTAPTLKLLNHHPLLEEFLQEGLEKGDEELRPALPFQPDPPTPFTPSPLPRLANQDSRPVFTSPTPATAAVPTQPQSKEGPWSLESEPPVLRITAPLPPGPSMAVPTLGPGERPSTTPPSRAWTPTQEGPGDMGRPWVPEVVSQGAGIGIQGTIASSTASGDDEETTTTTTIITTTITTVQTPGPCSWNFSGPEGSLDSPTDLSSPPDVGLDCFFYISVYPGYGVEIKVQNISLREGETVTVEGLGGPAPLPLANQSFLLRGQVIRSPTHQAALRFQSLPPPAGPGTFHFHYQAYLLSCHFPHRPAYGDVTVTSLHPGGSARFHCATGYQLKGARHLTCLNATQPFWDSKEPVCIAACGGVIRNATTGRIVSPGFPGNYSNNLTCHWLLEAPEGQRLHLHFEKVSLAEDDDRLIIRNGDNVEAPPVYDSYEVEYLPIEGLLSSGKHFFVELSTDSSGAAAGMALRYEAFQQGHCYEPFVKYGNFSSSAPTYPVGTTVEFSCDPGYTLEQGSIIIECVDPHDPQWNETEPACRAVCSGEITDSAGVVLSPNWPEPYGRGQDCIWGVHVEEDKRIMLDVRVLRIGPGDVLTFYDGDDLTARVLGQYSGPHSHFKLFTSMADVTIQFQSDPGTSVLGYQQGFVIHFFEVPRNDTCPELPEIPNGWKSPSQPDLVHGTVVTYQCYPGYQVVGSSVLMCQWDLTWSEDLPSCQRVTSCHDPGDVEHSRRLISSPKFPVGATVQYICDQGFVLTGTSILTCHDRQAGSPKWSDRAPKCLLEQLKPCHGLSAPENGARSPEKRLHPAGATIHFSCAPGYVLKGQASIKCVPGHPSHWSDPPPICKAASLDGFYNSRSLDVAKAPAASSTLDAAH
# Method: as §1
# [4] = biological target: T4, hSEZ6-ECD-His (human, UniProt Q53EL9 20-925); assay: bio-layer interferometry (ForteBio RED) or surface plasmon resonance (Biacore 2000) on human SEZ6-His; the table does not say which; column Hu Affinity (Kd, nM)
# T4 construct: the whole entry is named; also called recombinant SEZ6-His; human recombinant SEZ6-His
# From the text: Various methods were used to analyze the binding and immunochemical characteristics of selected SEZ6 modulators generated as set forth above.
Binder,binding result [1],binding result [2],binding result [3],Kd [4]
B1,no binding (tested: 1 µg/mL),no binding (tested: 5 µg/mL),binds,15.1 nM
B2,no binding (tested: 1 µg/mL),no binding (tested: 5 µg/mL),binds,1.8 nM

# — patent publication US20190022241A1 (AbbVie / Abbott, published 2019)
